# According to the nanobody polyreactivity screen of Harvey et al. (2022):
# Experiment: yeast display, Sf9 membrane polyspecificity reagent, FACS + sequencing; frameworks hold sequencing errors
# Method in brief: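 A nanobody's polyreactivity label depends on the gate it was sorted from. Yeast display cells were stained with 10% biotinylated, detergent-solubilized Sf9 membrane reagent for 1 hour at 4 °C, enriched on streptavidin microbeads and sorted by FACS. The low and high (top ~1%) gates were set on anti-HA fluorescence for expression and streptavidin fluorescence for reagent binding.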
row,Sequence,polyreactivity (PSR sort gate)
1,QVQLVESGGGLVQAGGSLRLSCAASGLTFKVNAMGWYRQAPGRGRELVAAISVSGGSTYYADSVKGRFTISRDNAKNTVYLQMNSLKPEDTAVYYCNADFYYRYYGAYDYWGQGTQVTVSS,high polyreactivity
2,QVQLVESGGGLVQAGGSLRLSCAASGSIFWYYAMGWYRQAPGKERELVAAISISGSTYYADSVKGRFTISRDNAKNTVYLQMNSLKPEDTAVYYCAARKFFWRSNYDYWGQGTQVNVSS,low polyreactivity
3,QFQLVESGGGLVQAGGSLRLSCAASGSIFEPNAMGWYRQAPGKEREFVAAISGSGGSTYYADSVKGRFTISRDNAKNTVYLQMNSLIQEDTAVYYCATRGKRSYFRTFYYWGQGTQVTVSS,high polyreactivity
4,QVQLVESGGGLVQAGGSLRLFCAASGITSSYYAMLWYRQAPGKERDLVADISQSGGSTYYADSVKGRFTISRDNAKNTVYLQMNSLKPEDTAVYYWAADTYWWSYLYDYWGQGTQVTVSS,high polyreactivity
5,QVQLVESGGGLVQAGGSLRLSCAASGSIFRGYAMGWYRQAPGKERELVAAITSSAGSTYYADSVKGRFTISRDNAKNTVYLQMNSLKPEDTAVYYCNKYPRASRRGFDYWGQGTQVTVSS,high polyreactivity
6,QVQLVESGGGLVQAGGSLRLSCAASGSIFYYYTMGWYRQAHGKESEFVATMTYSGGSTYYADSVKGRFTISRDNAKNTVYLQMNSLKPEDTAVYYCNARPRYYDWVDYWGQGTQVTVSS,low polyreactivity
7,QVQLVESGGGLVQAGGSLRLSCAASGSTFQVYAMGLYRQAPGKERELVASITSGGSTYADSVKGRFTISRDNAKNTVYLQINSLKPEDTAVYYCAAGGYFYPYTYDYWGQGTQVTVSS,low polyreactivity
8,QVQLVESGGGLVQAGGSLRLSCAASGGTFPVYAMGWYRQAPGKERELVAAISYSGVTTYYADSVKGRFTISRDNAKNTVYLQMNSLKPEDTAVYYCNADWRRWYIFSYDYWGQGTQVTVSS,low polyreactivity
9,QVQLVESGGGLVQAGGSLRLSCAASGFTFTWNTMGWYRQAPGKERELVAAITKSAGSTYYADSVKGRFTISRDNAKNTVYLQMNSLKPEDTAVYYCAARRVSRGNSKFDYYWGQGTQVTVSS,high polyreactivity
10,QVQLVESGVGLVQAGGSLRLSCAASGRIISRYAMGWYRQAPGKERELDAAISRRGGSTYYADSVKGRFTISRDNAKNTVYLQMNSLKPEDTAVYYCNADTGNRGYDYWGQGTQVTVSS,high polyreactivity
11,QVQLVESWGGLVQAGGSLSLSCAASGSIFAANAMGWYRQAPGKERELVAAISWSGGSTYADSVKRRFTISRDNEKNTVYLQRNSLKPEDTAVYYCAADLCSQYKFGYCGQGTQVTVSS,low polyreactivity
12,QVQLVESGGGLVQAGGSLRLSCAASGRTFVWNAMGWYRQAPGKERELVAAIDWSGGSTYYADSVKGRFTISRDNAKNTVYLQMNSLKPEDSAVYYCAKEYWYRALWYNYWGQGTQVTVSS,high polyreactivity
13,QVQLVESGGGLVQAGGSLRLSCAASGSIFVYNAMGWYRQAPGKERELVASITWSGGRTYYADSVKGRFTNSRDNAQNTVYLQMNSLKPEDTAVYYCAADSPRGYDYWGQGTQVTVSS,high polyreactivity
14,QVQLVESGGGLVQAGGSLRLTCAASGRTFKSYTMGWYRQAPGKEREFVAAISSRGGNTYYADSVKGRFTISRDNAKNTVYLQMNSLKPEDTAVYYCAAESSYWSFPTYDYWGQGTQVTVSS,high polyreactivity
15,QVQLVESGGGLVQAGGSLRLSCAASGSIFPGYAMGWYRQAPGKERELVATITWSGGSTYYADSVKGRFTISRDKAKNTVYLQMNSLKPEDTAVYYCNADSNWYYQWNYYGLYDYWGQGTQVTVSS,low polyreactivity
16,QVQLVESGGGLVQAGGSLRLSCAASGSTFQIYVKGWYRQAPGKERELVAAISGSGVRTYYADSVKGRFTISRDTAKNTVYIQMHSLKPEDTAVYYCAVDYKSDWAYDYWGQGTQVTVSS,high polyreactivity
17,QVQLEESGGGLFQAGGSLRLSCAASGSTFVSNAMGWYRQAPGKDRELVAAISSSGGRTSYADSVKGRFTISRDNAKNTVYLQMNSLKPEDTAVYYCNRVSPGPDADLEFDYWGQGTQVTVSS,low polyreactivity
